Data published in article PMC9860392, “The N-terminal domain of human mitochondrial helicase Twinkle has DNA-binding activity crucial for supporting processive DNA synthesis by polymerase γ” (The Journal of Biological Chemistry, 2022).

T1: Twinkle NTD (Homo sapiens, UniProt Q96RR1 43-372)
T1 sequence: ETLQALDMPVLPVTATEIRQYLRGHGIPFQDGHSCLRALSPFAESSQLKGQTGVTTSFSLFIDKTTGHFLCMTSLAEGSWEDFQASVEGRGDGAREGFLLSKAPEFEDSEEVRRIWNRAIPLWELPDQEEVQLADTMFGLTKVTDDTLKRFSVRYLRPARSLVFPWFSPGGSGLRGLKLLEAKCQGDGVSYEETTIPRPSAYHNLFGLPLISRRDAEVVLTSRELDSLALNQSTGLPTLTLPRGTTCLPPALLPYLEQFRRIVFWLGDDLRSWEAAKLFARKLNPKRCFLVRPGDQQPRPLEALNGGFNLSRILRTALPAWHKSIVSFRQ

T2: Twinkle CTD (C-terminal domain plus linker) (Homo sapiens, UniProt Q96RR1 360-684)
T2 sequence: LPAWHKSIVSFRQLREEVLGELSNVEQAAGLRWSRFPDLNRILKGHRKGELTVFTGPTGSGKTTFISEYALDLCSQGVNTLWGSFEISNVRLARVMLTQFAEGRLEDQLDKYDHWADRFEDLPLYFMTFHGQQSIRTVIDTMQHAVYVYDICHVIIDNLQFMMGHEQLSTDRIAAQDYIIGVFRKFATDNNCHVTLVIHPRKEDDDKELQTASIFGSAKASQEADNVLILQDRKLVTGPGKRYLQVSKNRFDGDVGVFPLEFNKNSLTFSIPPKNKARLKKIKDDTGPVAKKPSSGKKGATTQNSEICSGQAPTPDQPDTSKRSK

T3: FL Twinkle (mitochondrial helicase) (Homo sapiens, UniProt Q96RR1 43-684)
T3 sequence: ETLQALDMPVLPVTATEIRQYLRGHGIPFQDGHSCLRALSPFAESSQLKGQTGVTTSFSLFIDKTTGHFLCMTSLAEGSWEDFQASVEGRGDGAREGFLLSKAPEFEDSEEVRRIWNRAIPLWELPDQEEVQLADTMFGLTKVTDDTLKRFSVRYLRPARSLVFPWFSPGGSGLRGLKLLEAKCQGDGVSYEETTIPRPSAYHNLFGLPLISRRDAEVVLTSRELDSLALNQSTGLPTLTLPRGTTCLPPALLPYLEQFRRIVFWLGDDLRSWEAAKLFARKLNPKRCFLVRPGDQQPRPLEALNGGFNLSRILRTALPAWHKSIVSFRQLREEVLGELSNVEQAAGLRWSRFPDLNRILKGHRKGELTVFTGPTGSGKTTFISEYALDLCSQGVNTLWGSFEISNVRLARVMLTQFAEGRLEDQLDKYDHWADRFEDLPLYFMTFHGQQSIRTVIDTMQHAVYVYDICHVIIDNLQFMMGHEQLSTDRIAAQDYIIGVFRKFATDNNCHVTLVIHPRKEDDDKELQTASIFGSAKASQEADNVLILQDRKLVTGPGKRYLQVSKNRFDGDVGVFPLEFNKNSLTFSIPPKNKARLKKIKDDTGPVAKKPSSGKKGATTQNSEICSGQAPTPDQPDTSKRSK

B1: full-length (FL) human Twinkle (amino acids 43-684) (enzyme, UniProt Q96RR1 43-684, looked up)
chain: T3 sequence
notes: human mitochondrial helicase Twinkle, amino acids 43-684; SUMO fusion cut with ULP1 SUMO-protease; the fusion was purified on Ni resin, so it probably carried a His tag that left with SUMO; also called FL Twinkle; TWNK; source: E. coli Rosetta 2 DE3 pLacI, purified (PEI, ammonium sulfate, Ni sepharose, Q sepharose, heparin)
B2: Twinkle C-terminal domain plus linker (amino acids 360-684) (domain or fragment, human, UniProt Q96RR1 360-684, looked up)
chain: T2 sequence
notes: human mitochondrial helicase Twinkle, amino acids 360-684 (linker region and C-terminal domain; 36,650 Da); Cloned in the pET28 SUMO expression vector; SUMO cut with ULP1 SUMO-protease; the fusion was purified on Ni resin, so it probably carried a His tag that left with SUMO; also called CTD; Twinkle CTD; source: E. coli Rosetta 2 DE3 pLacI, purified (PEI, ammonium sulfate, Ni-NTA, heparin)

Experiments:
[1] = biological target: the molecule itself; experiment: SEC; Superdex 200 Increase 10/300 GL, 4 °C, 0.3 ml/min; 15 μl of 38.5 μM (monomer) FL Twinkle in 50 mM Tris-Cl pH 7.1, 5% glycerol, 300 mM NaCl, 1 mM TCEP; size from a calibration curve of protein standards
[2] = biological target: T1, Twinkle NTD; experiment: fluorescence anisotropy; no NaCl added; weak phase of two-site fit; 50 mM Tris acetate pH 7.5, 10% glycerol, 0.05% Tween-20, 0.5 mM DTT, 0 or 50 mM NaCl; 2.5 nM DNA; no Mg2+ or nucleotide listed; temperature not stated; conditions: protein: recombinant; tags: SUMO tag removed (ULP1); label: 3' fluorescein-T; single strand
[3] = biological target: T1, Twinkle NTD; experiment: fluorescence anisotropy; no NaCl added; tight phase of two-site fit; 50 mM Tris acetate pH 7.5, 10% glycerol, 0.05% Tween-20, 0.5 mM DTT, 0 or 50 mM NaCl; 2.5 nM DNA; no Mg2+ or nucleotide listed; temperature not stated; conditions: protein: recombinant; tags: SUMO tag removed (ULP1); label: 3' fluorescein-T; single strand
[4] = biological target: T2, Twinkle CTD (C-terminal domain plus …); experiment: fluorescence anisotropy; 50 mM NaCl; 50 mM Tris acetate pH 7.5, 10% glycerol, 0.05% Tween-20, 0.5 mM DTT, 0 or 50 mM NaCl; 2.5 nM DNA; no Mg2+ or nucleotide listed; temperature not stated; conditions: protein: recombinant; tags: SUMO tag removed (ULP1); chain copies: 6; label: 3' fluorescein-T; single strand
[5] = biological target: T3, FL Twinkle (mitochondrial helicase); experiment: as above; conditions: protein: recombinant; tags: SUMO tag removed (ULP1); chain copies: 6; label: 3' fluorescein-T; single strand
[6] = biological target: T2, Twinkle CTD (C-terminal domain plus …); experiment: fluorescence anisotropy; no NaCl added; 50 mM Tris acetate pH 7.5, 10% glycerol, 0.05% Tween-20, 0.5 mM DTT, 0 or 50 mM NaCl; 2.5 nM DNA; no Mg2+ or nucleotide listed; temperature not stated; conditions: protein: recombinant; tags: SUMO tag removed (ULP1); chain copies: 6; label: 3' fluorescein-T; single strand
[7] = biological target: T3, FL Twinkle (mitochondrial helicase); experiment: as above; conditions: protein: recombinant; tags: SUMO tag removed (ULP1); chain copies: 6; label: 3' fluorescein-T; single strand
[8] = biological target: T1, Twinkle NTD; experiment: as above; conditions: protein: recombinant; tags: SUMO tag removed (ULP1); label: 3' fluorescein-T; single strand
[9] = biological target: the molecule itself; experiment: SEC; Superdex 200 Increase 10/300 GL, 4 °C, 0.3 ml/min; 50 μl of 10 μM (monomer) CTD in 50 mM Tris-Cl pH 7.1, 5% glycerol, 600 mM NaCl; size from a calibration curve of protein standards
[10] = biological target: T1, Twinkle NTD; experiment: fluorescence anisotropy; no NaCl added; negligible binding; 50 mM Tris acetate pH 7.5, 10% glycerol, 0.05% Tween-20, 0.5 mM DTT, 0 or 50 mM NaCl; 2.5 nM DNA; no Mg2+ or nucleotide listed; temperature not stated; conditions: protein: recombinant; tags: SUMO tag removed (ULP1); label: 3' fluorescein-T; single strand
[11] = biological target: T3, FL Twinkle (mitochondrial helicase); experiment: fluorescence anisotropy; 50 mM NaCl (error exceeds value); 50 mM Tris acetate pH 7.5, 10% glycerol, 0.05% Tween-20, 0.5 mM DTT, 0 or 50 mM NaCl; 2.5 nM DNA; no Mg2+ or nucleotide listed; temperature not stated; conditions: protein: recombinant; tags: SUMO tag removed (ULP1); chain copies: 6; label: 3' fluorescein-T; single strand

Row | Binder | Kd [5] [nM] | Kd [6] [nM] | Kd [7] [nM] | Kd [8] [nM] | other results
1 | B1 |  |  |  |  | stoichiometry N [1]: ~7 subunits
2 | TGTGTTAGTTGGGGGGTGACTGTTAAAAGT (ssDNA) [30 nt ssDNA] | 2.6 ± 0.5 | 1.7 ± 0.5 | 1.6 ± 0.3 |  | Kd [2]: 730 ± 450 nM; Kd [3]: 17.5 ± 4 nM; Kd [4]: 4.5 ± 0.9 nM
3 | ATAACTCTTGAACACT (ssDNA) [16 nt ssDNA] | 22.6 ± 5.1 | 5.2 ± 1.4 | 2.8 ± 0.7 | 105 ± 24 | 
4 | B2 |  |  |  |  | stoichiometry N [9]: ~12 subunit
5 | TGAACACT (ssDNA) [8 nt ssDNA] |  | 116 ± 41 | 9 ± 4.9 |  | binding result [10]: no binding; Kd [11]: 10 ± 12 nM
6 | TGCTATAACTCTTGAACACT (ssDNA) [20 nt ssDNA] | 8.8 ± 1.3 | 2.2 ± 0.7 | 1.9 ± 0.5 |  | Kd [2]: 1200 ± 640 nM; Kd [3]: 18 ± 7 nM; Kd [4]: 50 ± 11 nM
7 | CTCTTGAACACT (ssDNA) [12 nt ssDNA] | 53 ± 17 | 21.7 ± 3 | 5.2 ± 1 | 141 ± 25 | 
8 | AACTCTTGAACACT (ssDNA) [14 nt ssDNA] | 39 ± 16 | 8.8 ± 1.5 | 3.3 ± 0.7 | 121 ± 26 | 
